Measured values reported in patent US20260092121A1 (TALEM THERAPEUTICS, published 2026).
Numbering of substitutions follows the chain as printed.

B1: anti-TrkB clone 3A05 (antibody, V domains shown)
VH: QVQLVESGAEVKKPGESLKISCKGSGYSFTTYWIAWVRQMPGKGLEWMGIIYPGDSDTRYSPSFQGQVTISADKSISTAYLQWSSLKASDTAMYYCARLGGGMDVWGQGTMVTVSS
VL: QAGLTQPPSASGTPGQRVTISCSGSSSNIGSNTVSWYRQIPGTAPKFLLYGNNQRPSGVPARFSGSKSGTSASLAVDGLQSDDEADYYCAAWDDSLSGYVFGTGTKLTVL
notes: full-length IgG
B2: anti-TrkB clone 3B09 (antibody, V domains shown)
VH: EVQLVQSGAEVKKPGESLKISCKGSGYSFTSYWIGWVRQMPGKGLEWMGIIYPGDSDTRYSPSFQGQVTISADKSISTAYLQWSSLKASDTAMYYCATPMEDGMDVWGQGTTVTVSS
VL: QAGLTQPPSVSVSPGQTVTITCSADNLGDKYTSWYQQRPGQSPVLVIYQDTKRPSGIPARFSGSNSGNTATLTISGTQAMDEADYYCQAWDSSTGVFGTGTKVTVL
notes: full-length IgG
B3: anti-TrkB clone 6F04 (antibody, V domains shown)
VH: B1 VH with Q1E, E6Q, T31S, A35G, L99G, G100S, M103Y, V105Y, M111L
VL: QSVLTQPPSVSVSPGQTASITCSGNKLGDKFVSWYHQRPGQSPVLVIYEDNKRPSGIPERFSGSNSGNTATLTISGTQAMDEGDYYCQTWDVSSYVFGTGTKVTVL
notes: full-length IgG
B4: anti-TrkB clone 3A06 (antibody, V domains shown)
VH: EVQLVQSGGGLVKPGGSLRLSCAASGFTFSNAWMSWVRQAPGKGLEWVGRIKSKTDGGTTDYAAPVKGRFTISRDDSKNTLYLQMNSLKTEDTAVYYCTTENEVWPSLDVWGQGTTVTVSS
VL: QSVLTQPPSVSVSPGQTASITCSGDKLGNKYASWYRQKPGQSPVLVIYQDTKRPSGIPERFSGSNSGNTATLTISGTQAMDEGDYYCQAWDSSTAVVFGGGTKLTVL
notes: full-length IgG
B5: anti-TrkB clone 5C07 (antibody, V domains shown)
VH: QVQLVQSGAEVKKPGESLKISCKGFGYSFTNYWIGWVRQMPGKGLEWMGIIYPGDSDTRYSPSFQGQVTISADKSITTAYLQWSSLKASDTAMYYCASHTKDGTWDIWGQGTMVTVSS
VL: QAGLTQPPSVSVSPGQTASITCSGERLGDKYVSWYQQKPGQSPVLVIYQDDKRPSGVPERFSGSNSGNTATLNISGTQPMDEADYYCQAWDSSTSLYVFGTGTKLTVL
notes: full-length IgG
B6: anti-TrkB clone 3E04 (antibody, V domains shown)
VH: EVQLVQSGAEVKKPGESLKISCKGSGYSFTSYWIGWVRQMPGKGLEWMGIIYPGDSDTRYSPSFQGQVTISADKSISTAYLQWSSLKASDTAMYYCASRLLFGDDAFDIWGQGTMVTVSS
VL: SYVLTQPPSVSVSPGQTATITCSGDKLGDEYVSWYQQKPGQSPVLVIYQDSKRPSGIPERFSGSNSGNTATLTISGAQAVDEADYYCQAWDSNAGAFGTGTKLTVL
notes: full-length IgG
B7: anti-TrkB clone 3B04 (antibody, V domains shown)
VH: B1 VH with E6Q, S17P, T30P, S84G, K87R, L99G, G101S, M103L, V105Y, M111L
VL: SYELMQPPSVSVSPGQTASITCSGDKLGTKYVSWYQQKPGQSPVLVIYQDSKRPSGIPERFSGSNSGNTATLTISGTQAMDEADYYCQAWDSSTVVFGGGTKLTVL
notes: full-length IgG
B8: anti-TrkB clone 3C02 (antibody, V domains shown)
VH: QVQLVQSGAEVKKPGESLKISCKGSGYSFTSYWIGWVRQMPGKGLEWMGIIYPGDSDTRYSPSFQGQVTISADKSISTAYLQWSSLKASDTAMYYCARGGPPDYWGQGTLVTVSS
VL: not shown
notes: full-length IgG
B9: anti-TrkB clone 4F03 (antibody, V domains shown)
VH: EVQLVQSGAEVKKPGESLKISCKGSGYSFTSYWIGWVRQMPGKGLEWMGIIYPGDSDTRYSPSFQGQVTISADKSISTAYLQWSSLKASDTAMYYCASWGMDVWGQGTLVTVSS
VL: QPVLTQPPSASGTPGQRVTISCSGSSSNIGTHTVNWYQQFPGTAPKLLMYSTFQRPSGVPDRFSGSKSGTSASLAISGLQSEDEADYYCAAWDDSLNGPVFGGGTQLTVL
notes: full-length IgG
B10: anti-TrkB clone 3F09 (antibody, V domains shown)
VH: EVQLVQSGAEVKKPGESLKISCKGSGYSFTSYWIGWVRQMPGKGLEWMGIIYPGDSDTRYSPSFQGQVTISADKSISTAYLQWSSLKASDTAMYYCVVRPAAAGTRIDYWGQGTLVTVSS
VL: B7 VL with S1Q, Y2S, E3V, M5T, T29D, V32A, V46I, S51N, V95Y, G99T
notes: full-length IgG
B11: anti-CD3 Fab clone 7-G01 (Fab, V domains shown)
VH: QVQLVQSGPEVKKPGASVNISCKTSGYTFRNYYVHWVRQAPGQGFEYMGRVNPNSGNARYAQKFQGRVAMTSDTSTSTAYMELSSLRSEDTAVYYCAREPPATVAYYYGMDVWGQGTTVTVSS
VL: NFMLTQPHSVSESPGKTVTISCTGSSGSIASNYVHWYQQRPGSAPTTVIYEDNQRPSGVPDRFSGSIDSSSNSASLTISGLKTEDEADYYCRSYDSSNRNWVFGGGTKLTVL
notes: Fab, HEK293
B12: anti-CD3 Fab clone 7-A11 (Fab, V domains shown)
VH: EVQLVESGGGVVQPGRSLRLSCAASGFTFSSYGIHWVRQAPGKGLEWVSAISGSGGSTYYADSVKGRFTISRDNAKNSLYLQMNSLRDEDTAVYYCARERLIGMDVWGQGTTVTVSS
VL: NFMLTQPHSVAESPGKTVTISCTRSSGSIASNYVQWYQQRPGSAPTTVIYEDNQRPSGVPDRFSGSIDSSSNSASLTISGLKTEDEADYYCQSYDSGNPRVFGGGTKLTVL
notes: Fab, HEK293
B13: anti-CD3 Fab clone 1-G11 (Fab, V domains shown)
VH: QVQLVQSGAEVKKPGASVKVSCKASGYTFTSYGISWVRQAPGQGLEWMGWISAYNGNTNYAQKLQGRVTMTTDTPTSTAYMEVRSLRSDDTAVYYCAREVNYGLDVWGQGTLVTVSS
VL: QPVLTQPPSASGTPGQRVTISCSGSSSNIGSKYVYWYQQLPGTAPKLLIYRNNQRPSGVPDRFSGSKSGTSASLVISGLRSEDEADYHCAAWDDSLSGRVFGGGTKLTVL
notes: Fab, HEK293
B14: anti-CD3 Fab clone 7-C11 (Fab, V domains shown)
VH: EVQLVESGGGLVQPGGSLRLSCAASGFTSNTYAMSWVRQAPGKGLEWVSTISGSGSSTNYADSVKGRFTISRDSSKNTLYLQMNSLRAEDTAVYYCARIERYSYGIDYWGQGTLVTVSS
VL: NFMLTQPHSVSESPGKTVTISCTRNTGGIAANYVQWYHQRPGSAPTTVIYEDKQRPSGVPGRFSGSIDGSSNSASLTISGLQAEDEGDYYCHSSDNNNQVFGGGTKLTVL
notes: Fab, HEK293
B15: anti-CD3 Fab clone 1-D03 (Fab, V domains shown)
VH: EVQLVQSGGGLVKPGRSLRLSCTASGFTFGDYAMSWFRQAPGKGLEWVGFIRSKAYGGTTEYAASVKGRFTISRDDSKSIAYLQMNSLKTEDTAVYYCTRVSDIYGMDVWGQGTTVTVSS
VL: QSVLTQPPSVSAAPGQKVTISCSGSSSNIGNNYVSWYQQLPGTAPKLLIYDNNKRPSGIPDRFSGSKSGTSATLGITGLQTGDEADYYCATWDDSLKAGVFGGGTKLTVL
notes: Fab, HEK293
B16: anti-CD3 Fab clone 4-G04 (Fab, V domains shown)
VH: QVNLRESGGGVVQPGGSLRLSCAASGFTFRRYGMNWIRQAPGKGLEWVSSISSSSSYIYYADSVKGRFTISRDNAKNSLYLQMNSLRAEDTAMYYCVRDGRFINGLDVWGQGTLVTVSS
VL: NFMLTQPHSVSESPGRTVTISCTRSSGSIASNYVQWYQQRPGSSPTTVIYDDKKRPSGVPDRFSGSIDSSTNSASLTISGLKTEDEADYYCQSYDSSNHWVFGGGTKVTVL
notes: Fab, HEK293
B17: anti-CD3 Fab clone 7-B02 (Fab, V domains shown)
VH: QVQLVQSGGGLVQPGGSLRLSCAASGFTFSRYSMSWVRQAPGKGLEWVSSISGGGGSTYYADSVKGRFTISRDNSDGSVYLKMNSLAAGDTAAYYCVRGGWYRTPFEFWGRGTLVTVSS
VL: SYVLTQPPSVSASPGQTASITCSGHKLGDKYTSWYQQKPGQSPVLVIYQDNKRPSGIPERFSGSNSGNTATLTISGTQAMDEADYYCQAWDSSTNYVFGTGTKLTVL
notes: Fab, HEK293

Assays:
[1] = target: human TrkA-His (human, UniProt P04629 33-417, limits assumed); assay: ELISA
[2] = target: human TrkC-His (human, UniProt Q16288 32-429); assay: ELISA
[3] = target: T1, mouse TrkB-ECD-GST (mouse, UniProt P15209 32-429); assay: ELISA
T1 construct: extracellular domain; in-house fusion, HEK293; also called mTrkB-ECD-GST; mTrkB (ELISA); not shown: glutathione S-transferase (GST) fusion part

[4] = target: TrkB in PathHunter eXpress TrkB Functional Assay cells (modified U2OS); assay: cell-based or functional assay
[5] = target: T2, human TrkB-His (human, UniProt Q16620 32-430); assay: BLI off-rate, mAb captured
T2 construct: in-house fusion of the TrkB ECD with poly-His, HEK293; also called huTrkB-His; hTrkB-His; not shown: poly-His tag

[6] = target: T3, biotinylated His-Avi-tagged human CD3δ/ε heterodimer (human, UniProt P07766 23-126; P04234 22-105, biotinylated); assay: ELISA
T3 construct: bought, expressed from HEK293; also called CD30/8; Biotin-CD3
T3 sequence (P07766 23-126, stated change not applied, chain 1 of 2): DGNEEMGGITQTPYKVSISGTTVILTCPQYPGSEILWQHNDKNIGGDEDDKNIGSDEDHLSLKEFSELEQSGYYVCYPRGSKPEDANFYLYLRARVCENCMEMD
T3 sequence (P04234 22-105, stated change not applied, chain 2 of 2): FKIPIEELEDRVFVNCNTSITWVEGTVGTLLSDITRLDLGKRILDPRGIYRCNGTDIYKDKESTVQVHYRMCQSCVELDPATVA

Sequence of human TrkA-His (P04629 33-417 limits assumed): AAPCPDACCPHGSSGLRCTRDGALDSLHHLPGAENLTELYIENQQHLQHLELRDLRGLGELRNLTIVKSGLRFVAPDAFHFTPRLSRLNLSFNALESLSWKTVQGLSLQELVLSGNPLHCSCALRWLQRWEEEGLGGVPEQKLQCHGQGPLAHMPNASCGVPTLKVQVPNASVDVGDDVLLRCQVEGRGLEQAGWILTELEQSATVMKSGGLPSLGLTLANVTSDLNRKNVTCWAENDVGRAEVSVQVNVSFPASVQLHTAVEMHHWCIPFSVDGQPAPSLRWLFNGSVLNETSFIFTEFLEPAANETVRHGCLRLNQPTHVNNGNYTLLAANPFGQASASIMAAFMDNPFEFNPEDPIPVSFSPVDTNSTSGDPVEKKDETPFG

Binder | binding result [1] | binding result [2] | binding result [3] | TrkB activation (EC50) [4] [µg/mL] | koff [5] [s⁻¹] | EC50 [6] [µg/mL]
B1 | no binding (tested: up to 10 µg/mL) | no binding (tested: up to 10 µg/mL) | binds | 0.006 | 0.00435 | –
B2 | no binding (tested: up to 10 µg/mL) | no binding (tested: up to 10 µg/mL) | binds | 0.094 | 0.00472 | –
B3 | no binding (tested: up to 10 µg/mL) | no binding (tested: up to 10 µg/mL) | binds | 0.035 | 0.00473 | –
B4 | no binding (tested: up to 10 µg/mL) | no binding (tested: up to 10 µg/mL) | binds | 0.15 | 0.00453 | –
B5 | no binding (tested: up to 10 µg/mL) | no binding (tested: up to 10 µg/mL) | binds | 0.47 | 0.00457 | –
B6 | no binding (tested: up to 10 µg/mL) | no binding (tested: up to 10 µg/mL) | binds | 0.11 | 0.00534 | –
B7 | no binding (tested: up to 10 µg/mL) | no binding (tested: up to 10 µg/mL) | binds | 0.1 | 0.00802 | –
B8 | no binding (tested: up to 10 µg/mL) | no binding (tested: up to 10 µg/mL) | binds | 0.15 | 0.00494 | –
B9 | no binding (tested: up to 10 µg/mL) | no binding (tested: up to 10 µg/mL) | – | 0.041 | 0.00639 | –
B10 | no binding (tested: up to 10 µg/mL) | no binding (tested: up to 10 µg/mL) | – | 0.053 | 0.00631 | –
B11 | – | – | – | – | – | 6.3
B12 | – | – | – | – | – | 34.9
B13 | – | – | – | – | – | 7.9
B14 | – | – | – | – | – | 52.3
B15 | – | – | – | – | – | 174
B16 | – | – | – | – | – | 73.8
B17 | – | – | – | – | – | 12.1
